Test results: patent US20200223919A1 (CYTOMX THERAPEUTICS, published 2020)
Where a chain is given by its changes, count along the chain named.

T1: human CD166 (human, UniProt Q13740 28-583)
T1 construct: whole, on cells; Endogenous protein detected by IHC on fixed, paraffin-embedded cells and tissues, and by Western blot of cell lysates; also called hCD166
T1 sequence (looked up): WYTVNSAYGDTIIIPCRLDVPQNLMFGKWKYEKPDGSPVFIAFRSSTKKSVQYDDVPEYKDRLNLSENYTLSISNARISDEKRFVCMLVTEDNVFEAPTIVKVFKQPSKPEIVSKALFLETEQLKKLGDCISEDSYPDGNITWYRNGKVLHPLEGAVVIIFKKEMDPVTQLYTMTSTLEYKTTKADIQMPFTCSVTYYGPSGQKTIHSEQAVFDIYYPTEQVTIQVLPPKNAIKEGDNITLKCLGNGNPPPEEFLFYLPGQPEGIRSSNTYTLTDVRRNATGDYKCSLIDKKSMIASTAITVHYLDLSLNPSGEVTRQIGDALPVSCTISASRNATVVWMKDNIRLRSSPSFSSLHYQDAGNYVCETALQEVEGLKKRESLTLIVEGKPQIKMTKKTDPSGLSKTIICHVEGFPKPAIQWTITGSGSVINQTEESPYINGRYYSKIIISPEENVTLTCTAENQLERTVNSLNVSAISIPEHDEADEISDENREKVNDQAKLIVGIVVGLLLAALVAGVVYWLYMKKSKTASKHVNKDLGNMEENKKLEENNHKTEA

T2: Peptide B, amino acid residues 565 to 583 of human CD166 (human)
T2 construct: Coated at 100 or 200 ng/well with 0.9 mg/mL BSA
T2 peptide: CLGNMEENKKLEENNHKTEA

T3: Peptide A, amino acid residues 550 to 569 of human CD166 (human)
T3 construct: Coated at 100 or 200 ng/well with 0.9 mg/mL BSA
T3 peptide: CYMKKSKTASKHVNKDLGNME

B1: Ab1 anti-hCD166 mouse monoclonal antibody (antibody, mouse IgG1, kappa)
heavy: EVQLQQSGAELVKPGASVKLSCTASGFNIKDYYMHWVKQRTEQGLEWIGKIDPENGETKYAPKFQGKATITADTSSSTAYLQLSSLTSEDTAVYYCAREGFMDYWGQGASVTVSSAKTTPPSVYPLAPGSAAQTNSMVTLGCLVKGYFPEPVTVTWNSGSLSSGVHTFPAVLQSDLYTLSSSVTVPSSTWPSQTVTCNVAHPASSTKVDKKIVPRDCGCKPCICTVPEVSSVFIFPPKPKDVLTITLTPKVTCVVVDISKDDPEVQFSWFVDDVEVHTAQTQPREEQFNSTFRSVSELPIMHQDWLNGKEFKCRVNSAAFPAPIEKTISKTKGRPKAPQVYTIPPPKEQMAKDKVSLTCMITDFFPEDITVEWQWNGQPAENYKNTQPIMDTDGSYFVYSKLNVQKSNWEAGNTFTCSVLHEGLHNHHTEKSLSHSPGK
light: DVVMTQTPLSLPVSLGDQASISCRSSQSLVHSNGNTYLHWYLQKPGQSPKLLIYKVSNRFSGVPDRFSGSGSGTDFTLKISRVEAEDLGVYFCSQSTFVPLTFGAGTKLELKRADAAPTVSIFPPSSEQLTSGGASVVCFLNNFYPKDINVKWKIDGSERQNGVLNSWTDQDSKDSTYSMSSTLTLTKDEYERHNSYTCEATHKTSTSPIVKSFNRNEC
notes: also called recombinant Ab1
B2: Ab2 anti-hCD166 mouse monoclonal antibody (antibody, mouse IgG1, kappa)
heavy: B1 heavy with K38R, N55D, S77N, A109T
light: B1 light with V2N, P12S, F98H
notes: Tested as hybridoma supernatant and as antibody purified from hybridoma supernatant

Columns and labels:
human CD166 = target: T1, human CD166; test: IHC on FFPE HCC1806 cells, supernatant at 10 µg/mL IgG
Procedure: As shown in the exemplary IHC images of FIGS. 1-4, formalin-fixed paraffin-embedded (FFPE) human tumor cell lines (triple-negative breast cancer-derived cell line HCC1806 and breast ductal carcinoma-derived cell line BT-20) were prepared and blocked using standard protocols, and then incubated with the indicated hybridoma supernatents (Ab3, Ab6, Ab2, Ab1, Ab5, Ab7, Ab4, or Ab8 of the present disclosure) at 10 μg/mL IgG for 60 minutes are room temperature. As a control, FFPE samples were also incubated with ABCAM® EPR2759(2)/ab109215 anti-hCD166 rabbit monoclonal antibody at 5 μg/mL. Detection of bound primary antibody was performed by subsequent incubation with biotinylated-conjugated anti-mouse IgG antibody (for the hybridoma supernatents) or biotinylated-conjugated anti-rabbit IgG antibody (for the ABCAM® antibody), followed by addition of avidin-horseradish peroxidase (HRP) (Vectastain Elite ABC HRP Kit, Vector Laboratories) to form the avidin-biotin-HRP complex, followed by addition of a 3,3′-diaminobenzidine substrate (DAB Plus, Dako). Tissues were counterstained with Hematoxylin (Fisher Scientific).

[1] = target: T2, Peptide B, amino acid residues 565 to …; test: ELISA, 200 ng/well peptide with 0.9 mg/mL BSA; expanded hybridoma clone supernatant
Excerpt: (§1) B cells from each of Mouse #2 and Mouse #3 were fused in a combined manner to generate hybridomas in accordance with methods known in the art. Hybridomas were cloned and ˜1100 clone supernatants were screened against the each of the human CD166-derived peptides using a Direct EIA format using a goat anti-IgG gamma chain-specific secondary antibody coupled to horseradish peroxidase (HRP) (Millipore, Cat. No. AP503P. Following the initial screen, 136 clones were selected for a further confirmatory screen, of which forty (40) were selected for expansion. The expanded clones were assayed for mouse IgG levels using anti-mouse sensors in an Octet RED96 system (Pall ForteBio) and ELISA (200 ng/well of peptides A or B with 0.9 mg/mL BSA). Candidates included Ab1 (also referred to herein as “Example anti-CD166 ICD antibody 1”), Ab2 (also referred to herein as “Example anti-CD166 ICD antibody 2”), Ab3, Ab4, Ab5, Ab6, Ab7, and Ab8. Five candidates (Ab1, Ab2, Ab3, Ab4, and Ab5) shown below in Table 4 were selected.

[2] = target: T3, Peptide A, amino acid residues 550 to …; test: as above
Excerpt: as §1

Binder | binding result (human CD166) | A620 [1] | A620 [2]
B1 | binds | 3.23 A620 | 0.162 A620
B2 | binds | 3.02 A620 | 0.067 A620
